Laboratory results reported in publication doi:10.1101/2020.07.29.226720v1 (biorxiv, 2020).

How the values were obtained:
AthPEPCK1 Δ101 = target: T1, AthPEPCK1 Δ101 (Arabidopsis thaliana, UniProt Q9T074); test: activity with effector, decarboxylation direction; type: biochemical; details: allosteric activator; 0.5 mM OAA, 0.3 mM ATP
T1 sequence (Q9T074 102-671): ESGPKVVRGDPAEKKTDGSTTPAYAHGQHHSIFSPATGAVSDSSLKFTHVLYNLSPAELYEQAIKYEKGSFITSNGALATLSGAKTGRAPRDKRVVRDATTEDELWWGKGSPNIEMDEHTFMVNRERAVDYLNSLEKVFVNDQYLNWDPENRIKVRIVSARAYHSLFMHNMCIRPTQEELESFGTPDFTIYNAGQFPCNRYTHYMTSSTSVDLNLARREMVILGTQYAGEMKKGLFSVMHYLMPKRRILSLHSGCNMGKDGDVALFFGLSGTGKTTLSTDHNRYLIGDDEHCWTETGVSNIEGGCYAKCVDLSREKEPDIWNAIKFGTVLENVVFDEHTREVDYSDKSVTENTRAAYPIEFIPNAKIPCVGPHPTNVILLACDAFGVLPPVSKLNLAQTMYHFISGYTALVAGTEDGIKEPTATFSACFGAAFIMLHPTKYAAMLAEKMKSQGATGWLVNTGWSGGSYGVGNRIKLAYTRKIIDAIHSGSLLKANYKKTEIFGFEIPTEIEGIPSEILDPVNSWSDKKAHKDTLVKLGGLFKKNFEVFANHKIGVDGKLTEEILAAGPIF

AthPEPCK1 WT = target: T2, AthPEPCK1 WT (Arabidopsis thaliana, UniProt Q9T074); test: activity with effector, carboxylation direction; type: biochemical; details: allosteric activator; 10 mM PEP, 0.13 mM ADP
T2 sequence (Q9T074 2-671): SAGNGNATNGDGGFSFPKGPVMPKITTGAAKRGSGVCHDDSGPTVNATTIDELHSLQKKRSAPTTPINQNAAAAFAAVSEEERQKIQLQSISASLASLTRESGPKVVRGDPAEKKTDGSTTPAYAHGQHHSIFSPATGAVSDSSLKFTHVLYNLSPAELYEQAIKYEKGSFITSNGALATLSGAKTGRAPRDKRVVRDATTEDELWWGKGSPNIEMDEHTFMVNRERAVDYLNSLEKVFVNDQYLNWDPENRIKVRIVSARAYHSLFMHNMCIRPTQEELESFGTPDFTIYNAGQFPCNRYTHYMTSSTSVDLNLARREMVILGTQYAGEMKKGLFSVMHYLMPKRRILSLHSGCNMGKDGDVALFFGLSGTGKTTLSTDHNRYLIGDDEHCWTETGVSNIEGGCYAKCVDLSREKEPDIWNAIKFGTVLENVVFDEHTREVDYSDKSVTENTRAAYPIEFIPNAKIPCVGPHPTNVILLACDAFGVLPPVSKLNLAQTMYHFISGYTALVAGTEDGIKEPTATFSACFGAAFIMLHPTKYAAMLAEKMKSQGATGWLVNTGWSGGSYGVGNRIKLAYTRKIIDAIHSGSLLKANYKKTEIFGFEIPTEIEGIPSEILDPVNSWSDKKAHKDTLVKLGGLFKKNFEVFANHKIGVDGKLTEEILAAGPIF

[1] = substrate: Nc1ncnc2c1ncn2[C@@H]1O[C@H](COP(=O)(O)OP(=O)(O)O)[C@@H](O)[C@H]1O; test: steady-state kinetics, carboxylation direction; type: biochemical, Arabidopsis thaliana
purified protein = substrate: Nc1ncnc2c1ncn2[C@@H]1O[C@H](COP(=O)(O)OP(=O)(O)OP(=O)(O)O)[C@@H](O)[C@H]1O; test: purified protein; details: 0.5 mM OAA

O=P(O)(O)OC[C@H]1OC(O)[C@H](O)[C@@H](O)[C@@H]1O (stereo partly shown) [Glc6P]
fold activation (AthPEPCK1 Δ101): 2 fold

O=C(O)C[C@H](O)C(=O)O [malate]
fold activation (AthPEPCK1 WT): 2 fold

B1: AthPEPCK1 Δ19 (Arabidopsis thaliana) (protein)
chain: GPVMPKITTGAAKRGSGVCHDDSGPTVNATTIDELHSLQKKRSAPTTPINQNAAAAFAAVSEEERQKIQLQSISASLASLTRESGPKVVRGDPAEKKTDGSTTPAYAHGQHHSIFSPATGAVSDSSLKFTHVLYNLSPAELYEQAIKYEKGSFITSNGALATLSGAKTGRAPRDKRVVRDATTEDELWWGKGSPNIEMDEHTFMVNRERAVDYLNSLEKVFVNDQYLNWDPENRIKVRIVSARAYHSLFMHNMCIRPTQEELESFGTPDFTIYNAGQFPCNRYTHYMTSSTSVDLNLARREMVILGTQYAGEMKKGLFSVMHYLMPKRRILSLHSGCNMGKDGDVALFFGLSGTGKTTLSTDHNRYLIGDDEHCWTETGVSNIEGGCYAKCVDLSREKEPDIWNAIKFGTVLENVVFDEHTREVDYSDKSVTENTRAAYPIEFIPNAKIPCVGPHPTNVILLACDAFGVLPPVSKLNLAQTMYHFISGYTALVAGTEDGIKEPTATFSACFGAAFIMLHPTKYAAMLAEKMKSQGATGWLVNTGWSGGSYGVGNRIKLAYTRKIIDAIHSGSLLKANYKKTEIFGFEIPTEIEGIPSEILDPVNSWSDKKAHKDTLVKLGGLFKKNFEVFANHKIGVDGKLTEEILAAGPIF
Km ([1]; 5 mM PEP): 40 ± 1 µM | kcat ([1]; 5 mM PEP): 2.64 ± 0.06 s⁻¹ | Km (purified protein): 29 ± 6 µM | kcat (purified protein): 3.38 ± 0.06 s⁻¹

B2: AthPEPCK1 Δ101 (Arabidopsis thaliana) (protein)
chain: ESGPKVVRGDPAEKKTDGSTTPAYAHGQHHSIFSPATGAVSDSSLKFTHVLYNLSPAELYEQAIKYEKGSFITSNGALATLSGAKTGRAPRDKRVVRDATTEDELWWGKGSPNIEMDEHTFMVNRERAVDYLNSLEKVFVNDQYLNWDPENRIKVRIVSARAYHSLFMHNMCIRPTQEELESFGTPDFTIYNAGQFPCNRYTHYMTSSTSVDLNLARREMVILGTQYAGEMKKGLFSVMHYLMPKRRILSLHSGCNMGKDGDVALFFGLSGTGKTTLSTDHNRYLIGDDEHCWTETGVSNIEGGCYAKCVDLSREKEPDIWNAIKFGTVLENVVFDEHTREVDYSDKSVTENTRAAYPIEFIPNAKIPCVGPHPTNVILLACDAFGVLPPVSKLNLAQTMYHFISGYTALVAGTEDGIKEPTATFSACFGAAFIMLHPTKYAAMLAEKMKSQGATGWLVNTGWSGGSYGVGNRIKLAYTRKIIDAIHSGSLLKANYKKTEIFGFEIPTEIEGIPSEILDPVNSWSDKKAHKDTLVKLGGLFKKNFEVFANHKIGVDGKLTEEILAAGPIF
Km ([1]; 15 mM PEP): 57 ± 6 µM | kcat ([1]; 15 mM PEP): 3.01 ± 0.08 s⁻¹ | Km (purified protein): 80 ± 10 µM | kcat (purified protein): 3.9 ± 0.2 s⁻¹
